Assay: yeast display, Sf9 membrane polyspecificity reagent, FACS + sequencing; frameworks hold sequencing errors
How it was run: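 Synthetic nanobody libraries on Saccharomyces cerevisiae BJ5465 were galactose-induced for 36–48 hours, stained 1 hour at 4 °C with 10% biotinylated, detergent-solubilized Sf9 membrane reagent and enriched on streptavidin microbeads. FACS then separated cells into low and high (top ~1%) gates by anti-HA (expression) and streptavidin (reagent binding) fluorescence. Genes were colony-PCR amplified, MiSeq 2 × 250 sequenced and CDR-length filtered. A clone's polyreactivity label is that of its gate of origin.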

| Sequence | polyreactivity (PSR sort gate) |
| --- | --- |
| QVQLVESGGGLVQAGGSLRLSCAASGRTSWYYAMGWYRQAPGKERELVAAITASGGSTYADSVKWRFTISRDNAKNTVYLQMNSLKPEDTAVYYCAAERPYSRVGYYYWGQGTQVTVSS | high polyreactivity |
| QVQLVESGGGLVQAGGSLRLSCAASGRTSYRYAMGWYRQAPGKERELVAAISWSGGSTYYADSVKGRFTISRDNAKNTVSLQMNSLKPDDTAVYYCNARQHQVRWWLREFDYWGQGTQVTVSS | low polyreactivity |
| QVQLVESGGGLVQAGGSLRLSCAASGRTSYTNAMGWYRQAPGKERELVAAINYSGGSTYYADSVKGRFTISRDNAKNTVYLQMNSLKPEDTAVYYCAAERYYWYTEMGYWGQGTQVTVSS | high polyreactivity |
| QVQLVESGGGLVQAGGSLRLSCAASGRTSYTYTMGWYRQAPGKERELVAAISWNAGSTYYADSVKGRFTISRDNAKNTVSLQMNSLKPEDTAVYYCNRRIFGGQRMYYWGQGTQVTVSS | high polyreactivity |
| QVQLVESGGGLVQAGGSLRLSCAASGRTSYTYVMGWYRQAPGKERELVAAIRLSGGNTYYADPVKGRFTISRDNAKNTVYLQMNSLKPEDTAVYYCAAQYWRHRKAYGYWGQGTQVTVSS | high polyreactivity |
| QVQLVESGGGLVQAGGSLRLSCAASGRTSYVYAMGWYRQAPGKERELVASITGSAGSTYYADSVKGRFTISRDNAKNTVYLQMNSLKPEDTAVYYCAVLRWRSWSSPGYYWGQGTQVTVSS | high polyreactivity |
| QVQLVESGGGLVQAGGSLRLSCAASGRTVPGYVMGWYRQARGKERELVAAITSGGSTNYADSVKGRFTISRDNAKNTVYLQMNSLKPEDTAVNYCNADRNRWPWSVFTSEYWGQGTQVTVSS | low polyreactivity |
| QVQLVESGGGLVQAGGSLRLSCAASGRTVSNYAMGWSRQAPGKERELVSAISTGGTSTYYADSVKGRFTISRDYAKNTVYLQMNSLKPEDTAVYYCIAVGGWVTHWLLREGDYWGQGTQVTVSS | low polyreactivity |
| QVQLVESGGGLVQAGGSLRLSCAASGRTYRYYAMGWYRQAPGKERELVAAITASTGRTYYADSVKGRFTISRDNAKNSVYLQMNRLKPEDTAVYYCDARQSSYRYPGSYEYWGQGTQVTVSS | high polyreactivity |
| QVQLVESGGGLVQAGGSLRLSCAASGRTYSQNAMGWYRQSPGKERELVAAIRRGGSTNYADSVKGRFTISRDNAKNTVYLQMNSLKPEDSAVYDCAADLRRNGWGFDYWGLGTQVTVSS | high polyreactivity |
| QVQLVESGGGLVQAGGSLRLSCAASGRTYSYYAMGSYRQAPGKERELVAAITTSGGSTYYADSVKGRFTISRDNAKNTVYLQMNSLKPEDTAVYYCNALSSGVYLYDYWGQGTQVTVSS | high polyreactivity |
| QVQLVESGGGLVQAGGSLRLSCAASGRTYTRYALGWYRQAPGKERELVAAISGGGGSTYYADSVKGRFTISRDNAKNTVYLQMNSLKPEDTAVYYCNAAARGSSFDYWGQGTQVTVSS | low polyreactivity |
| QVQLVESGGGLVQAGGSLRLSCAASGRTYWYYVMGWYRQAPGTERELVAAISSSGGRTYYADSVKGRFTISRDNAKNTVYLQMNSLKPEDTAVYYCNVDAWYPYQGFLVGYYYWGQGTQVTVSS | low polyreactivity |
| QVQLVESGGGLVQAGGSLRLSCAASGRVFSTNAMGWYRQAPGKERELVAGINSGGSTNYADSVKGRFTISRDNAKNTVSLQMNSLKPEDTAVYYCNATLRVESWYVHYGVDYDYWGQGTQVTVSS | low polyreactivity |
| QVQLVESGGGLVQAGGSLRLSCAASGSFIVQNSMGWYRQAPAKERELVAANTRGGSTYYADSVKGRFTISRDNAKNTVYLQMNSLKPEDTAVYYCAAYWYYYLMDYWGQGTQVTVSS | low polyreactivity |
| QVQLVESGGGLVQAGGSLRLSCAASGSIFAAYTMGWYRQAPGKERELVAAISVSTVSTYYADSVKGRFTISRDNAKNTVYLLMNSLKPEDTAVYYCNAVATDSYPEKDEHDSWGQGTQVTVSS | low polyreactivity |
| QVQLVESGGGLVQAGGSLRLSCAASGSIFACYAMGRYRQAPGKERELVATITWSGGSTYYADSVKGRFTISRDNAKNTVYLQMNSLKPEDTAVYYCAAEVVGIWYDLWYQGDYWGQGTQVTVSS | low polyreactivity |
| QVQLVESGGGLVQAGGSLRLSCAASGSIFAGNAMGWYRQAPGKEREFVAAITWSGGSTYYADSVKGRFTISRDNAKNTVYLQMNSLKPEDTAVYYCAARAYKRKTYYYWGQGTQVTVSS | high polyreactivity |
| QVQLVESGGGLVQAGGSLRLSCAASGSIFAGNAMGWYRQSPGKERELVAAITWRSGRTYYADSVKGRFTISRDNAKNTVYLEMNSLKPEDTAVYYCARGRYGYTAPFRRWYFRYDYWGQGTQVTVSS | high polyreactivity |
| QVQLVESGGGLVQAGGSLRLSCAASGSIFAGYAMGWYRQAPGKDRELVAAINWTGDSTYYADSVKGRFTNSRDNAKNTVYLQMNSLKQEDTAVYYCAAIRRQKGLWDYYYWGQGTQVTVSS | low polyreactivity |
| QVQLVESGGGLVQAGGSLRLSCAASGSIFAGYAMGWYRQAPGKERELVAAISKSAGSTYYADSVKGRFTISRDNAKNTVYLQMNSLKAEDTAVYYCAARTFNTYPSYYYWGQGTQVTVSS | high polyreactivity |
| QVQLVESGGGLVQAGGSLRLSCAASGSIFAGYAMGWYRQAPGKERELVAAISRRGGRTYYADSVKGRFTISRDNAKNTVYLQMNSLKPEDTAVYYCARRVDYISSKYGYWGQGTQVTVSS | high polyreactivity |

| Sequence | polyreactivity (PSR sort gate) |
| --- | --- |
| QVQLVESGGGLVQAGGSLRLSCAASGSIFAGYAMGWYRQAPGKERELVATITSGGSTNYADSVKGRFTISRDNAKNTVYLQMNSLKPEDTAVYYCAADVEDSIPSSYTGGEYDYWGQGTQGTVSS | low polyreactivity |
| QVQLVESGGGLVQAGGSLRLSCAASGSIFAHNAMGWYRKAPGKERELVAAISSGGSTNYADSVKGRFTISRDNAKNTVYLQMISLKPEDTAVYYCAAVQYAPKWWGEYDYWGQGTQVTVSS | low polyreactivity |
| QVQLVESGGGLVQAGGSLRLSCAASGSIFAHYTMGWYRQAPGKERELVAVISRSGARTYYADSVKGRFTISRDNAKNTVYLQMNSLKPEDTAVYYCAATWGSVQKGTYYYWGQGTQVTVSS | low polyreactivity |
| QVQLVESGGGLVQAGGSLRLSCAASGSIFAINAMGLYRQAPGKERELVARISWSGGRTYYADSVKGRFTISRDNAKNSVYLQMNSLKPEVTAVYYCAARYYWGQVTQVTVSS | high polyreactivity |
| QVQLVESGGGLVQAGGSLRLSCAASGSIFAINVMGWYRQAPGKEREFVAAISVRSGSTYYADSVKGRFTISRDNAKNTVYLQMNSLKPEDTAVYYCARDSYYIGRWLYYWGQGTQVTVSS | high polyreactivity |
| QVQLVESGGGLVQAGGSLRLSCAASGSIFAIYVMGWYRQAPGKERELVAAITWSGGSTYYADSVKGRFTISRDNAKNTVDLQMNSLKPEDTAVYYCAARVLRVRTVTTTWGQGTQVTLSS | high polyreactivity |
| QVQLVESGGGLVQAGGSLRLSCAASGSIFAKNAMGWYRPAPGTERELVAGIDFSGGSTYYADSVKGRFTISGDNAKNTVYLQMNSLKAEDTAVYYCAADWAYKYELDYWGQGNQVTVSS | low polyreactivity |
| QVQLVESGGGLVQAGGSLRLSCAASGSIFAKNAMGWYRQAPGKERELVAAIDLNGGSTYYADSVKGRFTISRDNAKNTVYLQMNSLKPEDTAVYYCADYYGHSSVIRSSPEYDSWGQGTQVTVSS | low polyreactivity |
| QVQLVESGGGLVQAGGSLRLSCAASGSIFAKYYARGWYRQAPVKERELVAAITSGGITNYADSVKGRFTISRDNAKNSVYLQMNSLKPEDTAVYYCAARKWLSAFDYWGQGTQVTVSS | low polyreactivity |
| QVQLVESGGGLVQAGGSLRLSCAASGSIFALYTMGWYRQAPWKERELVAGIRTGRSTNYADSVKGRFTISRDNAKNTVYLQMNSLKPEDTAVYYDYWGQGTQVTVSS | low polyreactivity |
| QVQLVESGGGLVQAGGSLRLSCAASGSIFANAMGWYRQAHGKERELVAAISFSGGRTFYADSVKGRFTISRDNAKNTVYLQMNSLKPEDTAVYYCAKGKISSRSGIYNYWGQGTQVTVSS | high polyreactivity |
| QVQLVESGGGLVQAGGSLRLSCAASGSIFANNAMGWYRQAPGKERELVAAISSSGGSTYYADSVKGRFTISRDNAKNTVYLQMNSLKPEDTAVYYCAARFYYGRRYSTSYDYWGQGTQVTVSS | high polyreactivity |
| QVQLVESGGGLVQAGGSLRLSCAASGSIFANYAMGWYRQAPGKERELVAAISKRGGSTNYADSVKGRFTISRDNAKNTVYLQMISLKPEDTAVYYCNVKPGSRRVLAAAYGYWGQGTKVTVSS | low polyreactivity |
| QVQLVESGGGLVQAGGSLRLSCAASGSIFAPYAMGLYRQAPGKERELVAAIRSSGGSTHYADSVKGRFTISRDNAKNTVYLQMNSLKPEDTAVYYCARSYGWYRWAGYDYWGQGTQVTVSS | high polyreactivity |
| QVQLVESGGGLVQAGGSLRLSCAASGSIFAPYAMGWYRQAPGKERELVAAIRWSGGRTYYADSVKGRFTISRDNAKNTVYLQMNSLKPEDTAVYYCNAVIHRLGKTYGTNRVDYWGQGTQVTVSS | high polyreactivity |
| QVQLVESGGGLVQAGGSLRLSCAASGSIFAPYAMGWYRQAPGKERELVAAISRSGGSTYYADSVKGRFTISRDNAKNTVYLQMNSLKPEDTAVYYCAVRNGLRQYRLDYWGQGTQVTVSS | high polyreactivity |
| QVQLVESGGGLVQAGGSLRLSCAASGSIFAPYAMGWYRQAPGKERELVATIRTTGDSTYYADSVKGRFTISRDNAKNTVYLQMNSLKPEDTAVYYCAAQQGVISRGNYWGQGTQVTVSS | low polyreactivity |
| QVQLVESGGGLVQAGGSLRLSCAASGSIFARYAMGWYRQAPGKERELVAAISRNGGSTYYADSVKGRFTISRDNAKNTVYLQMNSLKPEDTAVYYCAATQVGHYRIYDYWGQGTQVTVSS | low polyreactivity |
| QVQLVESGGGLVQAGGSLRLSCAASGSIFARYAMGWYRQAPGKERELVAAISSNSASTYYADSVKGRFTISRDNAKNTVYLQMNSLKPEDTAVYYCATAYRSYWLNDYWGQGTQVTVSS | low polyreactivity |
| QVQLVESGGGLVQAGGSLRLSCAASGSIFASNAMGWYRQAPGKEREFVAAIRYSGGITYYADSVKGRFTISRDNAKNTVYLQMNSLKPEDTAVYSCAAYGWGIRWYSRFDYWGQGTPVTVSS | high polyreactivity |
| QVQLVESGGGLVQAGGSLRLSCAASGSIFASNAMGWYRQAPGKEREFVAAITWRTDRTYYADSVKGRFTISRDNAKNTVFLQMNSLKPEDTAVYYCAADTWFYRFYYWGQCTQVTVSS | high polyreactivity |

Reference: the nanobody polyreactivity screen of Harvey et al. (2022)
